Results as given in a protein production outcome set (Wang et al. 2014).

Experiment: label from the status in PepcDB records

Sequence	protein production
YTSADNTWEPEENCDCPNLIQKFEESRAKSKKRGEKKPKCEEIQKLRGYERGLELAEIVGATDVTGDIKYLVRWQFCDEFDLVPSAQIVEKDPQMLIDYFQK	failed
YVFTVELERGPSGLGMGLIDGMHTHLGAPGLYIQTLLPGSPAAADGRLSLGDRILEVNGSSLLGLGYLRAVDLIRHGGKKMRFLVAKSDVETAKKIH	not failed
